Source: patent CN101045751A (INST OF MICROBIAL EPIDEMIC ACA, dated 2007)

Target: T1, B型肉毒毒素抗原 (Clostridium Botulinum, UniProt P10844 2-1291)
T1 sequence: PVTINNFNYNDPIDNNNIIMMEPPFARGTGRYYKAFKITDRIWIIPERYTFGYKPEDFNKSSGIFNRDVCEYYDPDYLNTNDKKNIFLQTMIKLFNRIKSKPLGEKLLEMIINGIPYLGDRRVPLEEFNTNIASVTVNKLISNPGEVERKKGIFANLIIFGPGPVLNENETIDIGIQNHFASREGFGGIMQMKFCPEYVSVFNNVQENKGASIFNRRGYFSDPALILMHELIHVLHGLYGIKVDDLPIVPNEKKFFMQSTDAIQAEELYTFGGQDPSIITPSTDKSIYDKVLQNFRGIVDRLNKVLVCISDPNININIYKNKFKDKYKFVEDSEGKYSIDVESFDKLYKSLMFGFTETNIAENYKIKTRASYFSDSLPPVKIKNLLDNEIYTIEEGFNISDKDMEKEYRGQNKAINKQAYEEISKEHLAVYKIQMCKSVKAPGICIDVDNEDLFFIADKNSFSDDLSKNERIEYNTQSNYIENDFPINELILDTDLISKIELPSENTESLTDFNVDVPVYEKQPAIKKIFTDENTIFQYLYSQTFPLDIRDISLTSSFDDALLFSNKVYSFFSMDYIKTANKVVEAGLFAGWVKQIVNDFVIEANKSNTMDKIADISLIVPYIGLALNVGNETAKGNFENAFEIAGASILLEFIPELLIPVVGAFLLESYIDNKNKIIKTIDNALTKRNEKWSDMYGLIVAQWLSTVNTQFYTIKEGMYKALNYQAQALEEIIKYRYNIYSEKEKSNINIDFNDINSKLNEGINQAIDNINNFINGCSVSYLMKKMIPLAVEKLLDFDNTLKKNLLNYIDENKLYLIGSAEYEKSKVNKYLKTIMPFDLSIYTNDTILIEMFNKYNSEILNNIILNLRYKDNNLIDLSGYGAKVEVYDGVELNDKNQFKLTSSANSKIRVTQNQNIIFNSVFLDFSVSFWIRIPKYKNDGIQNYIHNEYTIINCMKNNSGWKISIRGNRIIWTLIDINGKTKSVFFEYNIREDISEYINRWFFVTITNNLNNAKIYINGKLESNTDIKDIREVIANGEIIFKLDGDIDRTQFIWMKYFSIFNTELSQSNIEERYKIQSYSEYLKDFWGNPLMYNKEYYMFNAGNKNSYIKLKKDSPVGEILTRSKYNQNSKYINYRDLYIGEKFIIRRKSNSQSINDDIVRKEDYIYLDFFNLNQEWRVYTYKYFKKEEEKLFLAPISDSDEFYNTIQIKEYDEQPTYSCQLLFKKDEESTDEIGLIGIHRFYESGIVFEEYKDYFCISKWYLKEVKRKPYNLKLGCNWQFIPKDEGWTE
Experiment: ELISA

B1: 人源抗A型肉毒神经毒素基因工程抗体 HuAb-BNa 单链抗体 (ScFv) (scFv)
scFv: QVQLQESGPGLVKPSETLSLTCTVSGGSISSGSYYWGWIRQPPGKGLEWIGSIYYSGSTYYNPSLKSRVTISVDTSKNQFSLMLSSVTAADTAVYYCARQGSSGYYQNWFDPWGQGTLVTVSSSGGGGSGGGGSGGGGDVVMTQSPGTLSLSPGERATLSCRASQSVSSSYLAWYQQKPGQAPRLLIYGASSRATGIPDRFSGSGSGTDFTLTISRPEPEDFAVYYCQQPGFTFGPGTKVEIKRTVAA
B1: no binding.
